Results: US20240287172A1 (SCIRHOM, published 2024)

T1: hiR2-FL-R582A-T7 (human, UniProt Q6PJF5 1-856)
T1 sequence: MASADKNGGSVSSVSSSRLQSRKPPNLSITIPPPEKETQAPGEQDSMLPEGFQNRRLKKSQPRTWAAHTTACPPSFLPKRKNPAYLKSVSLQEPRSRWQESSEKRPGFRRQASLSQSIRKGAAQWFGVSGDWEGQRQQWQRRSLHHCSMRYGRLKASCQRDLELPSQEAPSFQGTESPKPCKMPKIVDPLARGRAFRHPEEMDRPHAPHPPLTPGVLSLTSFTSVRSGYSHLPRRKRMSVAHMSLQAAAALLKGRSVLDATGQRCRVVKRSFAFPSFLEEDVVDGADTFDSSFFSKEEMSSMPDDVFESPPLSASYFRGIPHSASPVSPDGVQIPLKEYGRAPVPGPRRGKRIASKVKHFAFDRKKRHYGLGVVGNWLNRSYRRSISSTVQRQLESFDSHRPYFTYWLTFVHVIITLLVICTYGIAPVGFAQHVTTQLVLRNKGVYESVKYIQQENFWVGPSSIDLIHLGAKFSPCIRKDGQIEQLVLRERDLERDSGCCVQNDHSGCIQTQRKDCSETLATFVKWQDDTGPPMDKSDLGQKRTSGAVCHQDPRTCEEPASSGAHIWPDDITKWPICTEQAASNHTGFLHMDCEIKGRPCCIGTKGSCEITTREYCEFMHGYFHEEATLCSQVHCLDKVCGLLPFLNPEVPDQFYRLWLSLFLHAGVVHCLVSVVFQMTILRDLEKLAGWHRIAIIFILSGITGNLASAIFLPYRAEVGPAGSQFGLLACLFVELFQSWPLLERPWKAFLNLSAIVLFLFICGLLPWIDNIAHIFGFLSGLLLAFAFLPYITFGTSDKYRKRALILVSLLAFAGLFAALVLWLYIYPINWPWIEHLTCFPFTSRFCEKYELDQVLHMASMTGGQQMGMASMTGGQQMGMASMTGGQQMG

T2: hiR2-FL-H590A-T7 (human, UniProt Q6PJF5 1-856)
T2 sequence: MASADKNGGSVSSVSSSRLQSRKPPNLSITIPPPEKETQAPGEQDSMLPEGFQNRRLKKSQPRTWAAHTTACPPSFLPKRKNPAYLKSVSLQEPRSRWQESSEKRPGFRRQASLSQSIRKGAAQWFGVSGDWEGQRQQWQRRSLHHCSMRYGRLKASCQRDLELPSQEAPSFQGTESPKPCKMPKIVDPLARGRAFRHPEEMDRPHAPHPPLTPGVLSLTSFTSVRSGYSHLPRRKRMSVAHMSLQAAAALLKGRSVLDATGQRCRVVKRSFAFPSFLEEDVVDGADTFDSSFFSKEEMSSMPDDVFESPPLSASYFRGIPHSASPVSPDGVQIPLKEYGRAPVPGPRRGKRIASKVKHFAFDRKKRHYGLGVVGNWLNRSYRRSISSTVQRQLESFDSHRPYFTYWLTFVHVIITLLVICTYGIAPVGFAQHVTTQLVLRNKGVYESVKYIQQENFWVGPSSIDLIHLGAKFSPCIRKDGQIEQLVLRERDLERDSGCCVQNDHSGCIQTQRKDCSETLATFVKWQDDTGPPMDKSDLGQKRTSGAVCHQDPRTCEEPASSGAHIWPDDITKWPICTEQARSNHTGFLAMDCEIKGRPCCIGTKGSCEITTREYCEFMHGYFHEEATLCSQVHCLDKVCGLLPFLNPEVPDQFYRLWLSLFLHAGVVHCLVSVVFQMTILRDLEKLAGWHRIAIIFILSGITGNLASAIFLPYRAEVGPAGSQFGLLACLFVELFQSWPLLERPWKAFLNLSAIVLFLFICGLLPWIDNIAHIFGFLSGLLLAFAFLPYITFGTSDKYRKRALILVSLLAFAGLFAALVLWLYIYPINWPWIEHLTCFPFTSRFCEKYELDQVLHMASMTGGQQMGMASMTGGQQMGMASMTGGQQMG

B1: antibody 3 (antibody, V domains shown)
VH: QVTLKESGPGILQPSQTLSLTCSFSGFSLTTFAMGIGWVRQPSGKGLEWLAHIWWDGEKYNNPVLKSRLTISKDTSKNQVFLRIANVDTPDTATYYCARISSIYYIIDNWGQGTSVTVSS
VL: DIVLTQSPATLSVTPGHSVSLSCRASQSISNNLHWYQKKSHESPRLLIKYVSQSISGIPSRFSGSGSGTDFTLSINSVETEDFGMYFCQQSYNWPLTFGAGTKLELK
notes: mouse IgG, kappa light chain; also called clone #3; purified antibody 3
B2: antibody 48 (antibody, V domains shown)
VH: QVQLQQSGTELVRPGTSVKVSCKASGYAFTNYLIEWVKQRPGQGLEWIGVINPGSGFTKYNEKFKGKATLTADKSSSTVYMHLSSLTSEDSAVYFCARGLYRAMDYWGQGTSVTVSS
VL: DIQMTQSPASQSASLGESVTITCLASQTIATWLAWYQQKPGKSPQLLIYGATTLADGVPSRFSGGGSGTKFSFKISSLQAEDFVSYYCQQLYSTPYTFGGGTKLEIK
notes: mouse IgG, kappa light chain; also called clone #48; purified antibody 48

How the values were obtained:
hiR2-FL-R582A-T7 = biological target: T1, hiR2-FL-R582A-T7; experiment: FACS on MEF-DKO cells expressing the variant, 3 µg/ml antibody
Outline: (§1)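 Cells stained with purified antibody at 3 μg/ml for 1 h on ice, then with PE-conjugated goat anti-mouse IgG F(ab′)2 (1:100) for 1 h on ice in the dark. Binding read by flow cytometry; buffer-only staining as control.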

hiR2-FL-H590A-T7 = biological target: T2, hiR2-FL-H590A-T7; experiment: as above
Outline: as §1

Binder | loss of binding vs wild type (hiR2-FL-R582A-T7) [%] | loss of binding vs wild type (hiR2-FL-H590A-T7) [%]
B1 | ≥ 30 | 
B2 |  | ≥ 30
